167 variants from the Human Domainome abundance scans (Beltran et al. 2025) can be followed below.

± gives the uncertainty stated by the source.

B1: SWI/SNF-related matrix-associated actin-dependent regulator of chromatin subfamily B member 1, residues 181 to 248; numbered along this chain, Q12824 (parent)
chain: SQPEVLVPIRLDMEIDGQKLRDAFTWNMNEKLMTPEMFSEILCDDLDLNPLTFVPAIASAIRQQIESY

The variants in the data set derive from B1. Nature of the data set: abundance fitness (aPCA) (normalised: wild type 0, dead -1); higher = more abundant; growth selection in yeast, the domain comes from the species named. Conditions: Homo sapiens.
As for L6S, the abundance fitness is 0.036 ± 0.06.
In the case of L6M, the abundance fitness amounted to 0.141 ± 0.083.
In the case of L6W it was -0.152 ± 0.39; in that of L6T, -0.126 ± 0.082.
The result for L6F reads -0.236 ± 0.12; that for G17S, -0.769 ± 0.13.
Take G17P: the abundance fitness is -0.927 ± 0.29.
On to G17R, for which the abundance fitness is -0.713 ± 0.071.
The result for G17N reads -0.714 ± 0.49.
The result for G17E reads -0.931 ± 0.18.
In the case of G17K it was -0.365 ± 0.099.
As for L51E, the abundance fitness was determined as 0.185 ± 0.089.
The result for M28T reads -0.277 ± 0.24.
As for M28P, the abundance fitness is -0.5 ± 0.21.
In the case of M28L it was 0.087 ± 0.16; in that of L42H, -0.636 ± 0.12.
The result for L42W reads -0.883 ± 0.34; that for L42A, -0.721 ± 0.1; that for L42C, -0.846 ± 0.2.
The result for L42Y reads -0.071 ± 0.12.
As for L42R, the abundance fitness is -0.211 ± 0.045.
On to L42K, for which the abundance fitness was -0.106 ± 0.072.
The result for L42P reads -0.33 ± 0.1; that for L42M, 0.117 ± 0.064.
In the case of L42S it was -0.69 ± 0.14; in that of L42F, -0.128 ± 0.21; in that of L42G, -0.909 ± 0.1.
In the case of E40Q it was 0.005 ± 0.065; in that of E40H, -0.236 ± 0.065; in that of E40W, -0.511 ± 0.06.
On to E40F, for which the abundance fitness was -0.463 ± 0.17.
As for E40G, the abundance fitness was -0.347 ± 0.036.
For the variant E40V, the abundance fitness was -0.215 ± 0.041.
The result for T25H reads -0.065 ± 0.13.
The result for T25F reads 0.311 ± 0.21; that for T25R, -0.451 ± 0.045; that for T25K, -0.125 ± 0.066.
The result for T25W reads -0.228 ± 0.05; that for T25S, -0.173 ± 0.061; that for D16H, -0.247 ± 0.057.
D16T: the abundance fitness is -0.801 ± 0.16.
Regarding D16K, the abundance fitness was -0.498 ± 0.081.
The result for D16G reads -0.027 ± 0.04; that for D16L, -0.5 ± 0.055; that for T52I, -0.417 ± 0.4.
The result for T52H reads -0.104 ± 0.22; that for T52K, 0.189 ± 0.071.
With T52S, the abundance fitness is -0.14 ± 0.17.
In the case of T52L it was -0.163 ± 0.14; in that of T52C, -0.31 ± 0.24.
In the case of T52G it was -0.634 ± 0.14; in that of E66K, -0.106 ± 0.059; in that of E66G, -0.316 ± 0.075.
As to E66W, the abundance fitness was -0.313 ± 0.072.
As for E66M, the abundance fitness is -0.215 ± 0.12.
With E66S, the abundance fitness was -0.06 ± 0.039.
I41G: the abundance fitness is 0.097 ± 0.041.
The result for I41A reads 0.207 ± 0.04; that for I41R, 0.218 ± 0.03; that for I41W, -0.04 ± 0.045.
Turning to I41M, the abundance fitness turned out to be 0.131 ± 0.048.
In the case of I41N, the abundance fitness is 0.167 ± 0.068.
The result for I41C reads -0.062 ± 0.061.
Consider L32G, for which the abundance fitness came out at 0.061 ± 0.03.
For L32T, the abundance fitness was found to be 0.134 ± 0.055.
For L32H, the abundance fitness was 0.146 ± 0.053.
Turning to L32A, the abundance fitness came out at 0.056 ± 0.036.
In the case of L32D it was 0.181 ± 0.05; in that of W26Q, -0.879 ± 0.29; in that of W26R, -0.498 ± 0.18.
In the case of W26T it was -0.854 ± 0.26; in that of W26E, -0.628 ± 0.33.
The result for W26C reads -0.673 ± 0.42.
Regarding W26M, the abundance fitness is -0.566 ± 0.33.
Consider I57A, for which the abundance fitness was -0.781 ± 0.13.
The result for I57Q reads -0.779 ± 0.18; that for I57H, -1.03 ± 0.2; that for I57K, -0.931 ± 0.14.
Consider I57E, for which the abundance fitness was -0.749 ± 0.21.
For the variant I57P, the abundance fitness is -1.04 ± 0.28.
In the case of R21N it was 0.098 ± 0.072.
For the variant R21E, the abundance fitness was -0.026 ± 0.085.
In the case of R21W it was -0.368 ± 0.13; in that of R21I, 0.081 ± 0.094.
In the case of R21Y it was -0.227 ± 0.085; in that of R21P, -0.357 ± 0.14.
In the case of R21A it was -0.076 ± 0.056.
Take R62H: the abundance fitness is -0.239 ± 0.14.
With R62S, the abundance fitness is -0.386 ± 0.054.
As for R62T, the abundance fitness was -0.3 ± 0.053.
Take R62M: the abundance fitness was -0.619 ± 0.11.
In the case of R62K it was -0.043 ± 0.047; in that of M33Y, -0.421 ± 0.17.
Turning to M33V, the abundance fitness was -0.248 ± 0.052.
In the case of M33K it was -0.325 ± 0.091; in that of M33R, -0.418 ± 0.046.
The result for M33W reads -0.488 ± 0.068; that for M33L, 0.01 ± 0.039; that for M33I, -0.104 ± 0.12.
With R10Y, the abundance fitness stood at 0.138 ± 0.29.
In the case of R10Q it was 0.076 ± 0.083; in that of R10W, -0.196 ± 0.1.
The result for R10E reads 0.065 ± 0.13; that for R10L, -0.193 ± 0.11; that for E30W, 0.023 ± 0.32.
Turning to E30A, the abundance fitness is -0.619 ± 0.34.
In the case of E30G it was -0.617 ± 0.32; in that of L20M, -0.655 ± 0.19.
For L20S, the abundance fitness is -0.603 ± 0.28.
For the variant L20C, the abundance fitness is -0.319 ± 0.067.
The result for L20P reads -0.622 ± 0.29; that for L20E, -0.94 ± 0.32; that for L20R, -0.501 ± 0.1.
For L20G, the abundance fitness is -0.677 ± 0.18.
On to P50A, for which the abundance fitness was -0.292 ± 0.06.
As for P50V, the abundance fitness was -0.772 ± 0.085.
In the case of V7M it was -0.646 ± 0.14.
In the case of V7E it was -0.868 ± 0.18; in that of V7T, -0.77 ± 0.19; in that of V7R, -0.998 ± 0.12.
In the case of V7Q it was -0.937 ± 0.19; in that of V7F, -0.547 ± 0.17.
With I61V, the abundance fitness is -0.536 ± 0.1.
The result for I61M reads -0.461 ± 0.089.
Consider I61D, for which the abundance fitness was -0.827 ± 0.29.
In the case of I61C it was -0.956 ± 0.27; in that of I61G, -0.854 ± 0.15; in that of I61W, -0.989 ± 0.25.
In the case of I61T it was -0.594 ± 0.16; in that of V5Q, 0.184 ± 0.11; in that of V5S, -0.174 ± 0.11.
In the case of V5M, the abundance fitness was -0.107 ± 0.28.
As to V5F, the abundance fitness was -0.079 ± 0.17.
The result for V5H reads 0.505 ± 0.19.
Turning to V5G, the abundance fitness is -0.302 ± 0.1.
For I65R, the abundance fitness was -0.543 ± 0.14.
In the case of I65P it was -0.689 ± 0.26; in that of I65E, -0.994 ± 0.41; in that of I65V, -0.232 ± 0.11.
The result for F24K reads -0.941 ± 0.16.
Turning to F24P, the abundance fitness is -0.866 ± 0.18.
For F24Q, the abundance fitness is -1.06 ± 0.24.
The result for F24G reads -0.884 ± 0.092; that for F24A, -0.974 ± 0.099.
With F24D, the abundance fitness is -0.451 ± 0.098.
In the case of F24E it was -0.763 ± 0.15; in that of F24T, -0.746 ± 0.15.
The result for F24N reads -0.964 ± 0.2; that for F24H, -0.991 ± 0.29.
With S67R, the abundance fitness turned out to be 0.039 ± 0.035.
In the case of S67H it was -0.089 ± 0.057; in that of S67W, -0.234 ± 0.083; in that of S67I, -0.078 ± 0.28.
In the case of S67A it was 0.046 ± 0.072; in that of S67C, 0.003 ± 0.052; in that of N49S, -0.498 ± 0.058.
With N49C, the abundance fitness is -0.356 ± 0.075.
With N49D, the abundance fitness is -0.057 ± 0.046.
The result for N49L reads -0.924 ± 0.079; that for N49E, -0.292 ± 0.053.
For P8L, the abundance fitness was -0.512 ± 0.043.
Take P8Q: the abundance fitness was -0.072 ± 0.043.
In the case of P8F it was -0.506 ± 0.089; in that of P8H, -0.641 ± 0.14; in that of P8A, -0.676 ± 0.074.
The result for N27E reads -0.822 ± 0.45.
In the case of N27P it was -0.512 ± 0.15.
